Assay results taken from paper PMC6701479, “KAP1 is an antiparallel dimer with a functional asymmetry” (Life Science Alliance, 2019).

Columns and labels:
Atto 532–labeled HP1α = Atto 532–labeled HP1α (UniProt P45973 1-191, Atto 532 on a tripeptide (Thz-G2-C3-CONH2, thiazolidine opened) joined to the C terminus; C-terminal amide); assay: cell-based or functional assay
[1] = biological target: the molecule itself; assay: SEC-MALS; KAP1 constructs alone, 10 to 40 μM; Superose 6 10/300 GL; 20 mM Hepes pH 7.5, 300 mM NaCl, 2 mM TCEP

Sequence of Atto 532–labeled HP1α (P45973 whole entry): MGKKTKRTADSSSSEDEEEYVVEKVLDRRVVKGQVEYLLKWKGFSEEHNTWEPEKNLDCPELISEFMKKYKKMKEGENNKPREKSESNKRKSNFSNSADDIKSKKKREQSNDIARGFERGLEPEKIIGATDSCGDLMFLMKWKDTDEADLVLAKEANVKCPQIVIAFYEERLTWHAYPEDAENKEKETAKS

B1: KAP1 full-length protein (KAP1 FL, 1–835) (natural protein, human, UniProt Q13263 1-835, looked up)
chain: MAASAAAASAAAASAASGSPGPGEGSAGGEKRSTAPSAAASASASAAASSPAGGGAEALELLEHCGVCRERLRPEREPRLLPCLHSACSACLGPAAPAAANSSGDGGAAGDGTVVDCPVCKQQCFSKDIVENYFMRDSGSKAATDAQDANQCCTSCEDNAPATSYCVECSEPLCETCVEAHQRVKYTKDHTVRSTGPAKSRDGERTVYCNVHKHEPLVLFCESCDTLTCRDCQLNAHKDHQYQFLEDAVRNQRKLLASLVKRLGDKHATLQKSTKEVRSSIRQVSDVQKRVQVDVKMAILQIMKELNKRGRVLVNDAQKVTEGQQERLERQHWTMTKIQKHQEHILRFASWALESDNNTALLLSKKLIYFQLHRALKMIVDPVEPHGEMKFQWDLNAWTKSAEAFGKIVAERPGTNSTGPAPMAPPRAPGPLSKQGSGSSQPMEVQEGYGFGSGDDPYSSAEPHVSGVKRSRSGEGEVSGLMRKVPRVSLERLDLDLTADSQPPVFKVFPGSTTEDYNLIVIERGAAAAATGQPGTAPAGTPGAPPLAGMAIVKEEETEAAIGAPPTATEGPETKPVLMALAEGPGAEGPRLASPSGSTSSGLEVVAPEGTSAPGGGPGTLDDSATICRVCQKPGDLVMCNQCEFCFHLDCHLPALQDVPGEEWSCSLCHVLPDLKEEDGSLSLDGADSTGVVAKLSPANQRKCERVLLALFCHEPCRPLHQLATDSTFSLDQPGGTLDLTLIRARLQEKLSPPYSSPQEFAQDVGRMFKQFNKLTEDKADVQSIIGLQRFFETRMNEAFGDTKFSAVLVEPPPMSLPGAGLSSQELSGGPGDGP
notes: KAP1 (TRIM28, TIF1β), human, residues 1–835, complete full-length protein; His6 tag followed by a TEV protease cleavage site precedes the protein (pETDuet-1); no cleavage step is described; also called TIF1β; TRIM28; source: E. coli Rosetta (DE3) / Rosetta (DE3) pLys, purified (HisTrap, desalting, SEC)
slow residence time τ_(off,2) of HP1α on H3K9me3 chromatin fibers (smTIRF), KAP1 50 to 400 nM (Atto 532–labeled HP1α): ~3 fold | stoichiometry N [1]: 2

B2: KAP1 RBCC domain (RBCC, 23–418) (domain or fragment, human, UniProt Q13263 23-418, looked up)
chain: GEGSAGGEKRSTAPSAAASASASAAASSPAGGGAEALELLEHCGVCRERLRPEREPRLLPCLHSACSACLGPAAPAAANSSGDGGAAGDGTVVDCPVCKQQCFSKDIVENYFMRDSGSKAATDAQDANQCCTSCEDNAPATSYCVECSEPLCETCVEAHQRVKYTKDHTVRSTGPAKSRDGERTVYCNVHKHEPLVLFCESCDTLTCRDCQLNAHKDHQYQFLEDAVRNQRKLLASLVKRLGDKHATLQKSTKEVRSSIRQVSDVQKRVQVDVKMAILQIMKELNKRGRVLVNDAQKVTEGQQERLERQHWTMTKIQKHQEHILRFASWALESDNNTALLLSKKLIYFQLHRALKMIVDPVEPHGEMKFQWDLNAWTKSAEAFGKIVAERPGTNST
notes: KAP1 (TRIM28), human, RBCC domain (RING, B-box 1, B-box 2, coiled coil), residues 23–418; His6 tag and TEV site precede the protein; no cleavage step is described; also called N-terminal RBCC domain of KAP1; source: E. coli Rosetta (DE3) / Rosetta (DE3) pLys, purified (HisTrap, desalting, SEC)
stoichiometry N [1]: 2

B3: ΔKAP1 (23–812) (domain or fragment, human, UniProt Q13263 23-812, looked up)
chain: GEGSAGGEKRSTAPSAAASASASAAASSPAGGGAEALELLEHCGVCRERLRPEREPRLLPCLHSACSACLGPAAPAAANSSGDGGAAGDGTVVDCPVCKQQCFSKDIVENYFMRDSGSKAATDAQDANQCCTSCEDNAPATSYCVECSEPLCETCVEAHQRVKYTKDHTVRSTGPAKSRDGERTVYCNVHKHEPLVLFCESCDTLTCRDCQLNAHKDHQYQFLEDAVRNQRKLLASLVKRLGDKHATLQKSTKEVRSSIRQVSDVQKRVQVDVKMAILQIMKELNKRGRVLVNDAQKVTEGQQERLERQHWTMTKIQKHQEHILRFASWALESDNNTALLLSKKLIYFQLHRALKMIVDPVEPHGEMKFQWDLNAWTKSAEAFGKIVAERPGTNSTGPAPMAPPRAPGPLSKQGSGSSQPMEVQEGYGFGSGDDPYSSAEPHVSGVKRSRSGEGEVSGLMRKVPRVSLERLDLDLTADSQPPVFKVFPGSTTEDYNLIVIERGAAAAATGQPGTAPAGTPGAPPLAGMAIVKEEETEAAIGAPPTATEGPETKPVLMALAEGPGAEGPRLASPSGSTSSGLEVVAPEGTSAPGGGPGTLDDSATICRVCQKPGDLVMCNQCEFCFHLDCHLPALQDVPGEEWSCSLCHVLPDLKEEDGSLSLDGADSTGVVAKLSPANQRKCERVLLALFCHEPCRPLHQLATDSTFSLDQPGGTLDLTLIRARLQEKLSPPYSSPQEFAQDVGRMFKQFNKLTEDKADVQSIIGLQRFFETRMNEAFGDTKFSAVLVEP
notes: His6 tag and TEV site precede the protein; no cleavage step is described; source: E. coli Rosetta (DE3) / Rosetta (DE3) pLys, purified (HisTrap, desalting, SEC)
stoichiometry N [1]: 2
